Test results published in publication PMC5620733, “Aptamer-Based Single-Step Assay by the Fluorescence Enhancement on Electroless Plated Nano Au Substrate”.

Molecular target: thrombin (UniProt P00734;P00734 328-363;364-622)
Test: fluorescence decrease on chitosan-coated Au nanostructure (aptamer release); 10 ug/mL thrombin, 15 min; smaller signal change than 15mer, ascribed to retention on chitosan; 20 mM Tris-HCl pH 7.4, 20 mM MgCl2; chitosan-coated (1000 Da) Au nanostructure blocked with 1% BSA; 15 min; temperature not stated

CACTGTGGTTGGTGTGGTTGG (ssDNA) [TBA 21mer (5'-extended)]: binds.
